Values belong to the binder of their own block, whether it stands above or below them.
Target: T1, FcγRIIIa extracellular domain, C-terminal His tag (human, UniProt P08637 17-208)
T1 construct: extracellular domain; also called 3a
Experiment: SPR, binding activity relative to GpH7-A5/GpH7-B3/GpL16-k0 (=100)

T1 sequence (P08637 other isoform, or with tags, fused parts or gaps): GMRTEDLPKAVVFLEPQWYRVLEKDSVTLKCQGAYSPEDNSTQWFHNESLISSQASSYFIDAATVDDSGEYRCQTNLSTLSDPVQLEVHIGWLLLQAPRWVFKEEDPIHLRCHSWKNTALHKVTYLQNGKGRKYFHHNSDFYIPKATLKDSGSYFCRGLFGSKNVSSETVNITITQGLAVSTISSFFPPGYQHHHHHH

He/Con 3a: 74.9%
B2: GpH7-A5/GpH7-B3 variant S298_01G/GpL16-k0 (antibody, human IgG1, kappa)
heavy 1: not shown
heavy 2: not shown
light: DIVMTQSPLSLPVTPGEPASISCQASESLVHSNRNTYLHWYLQKPGQSPQLLIYKVSNRFSGVPDRFSGSGSGTDFTLKISRVEAEDVGVYYCSQNTHVPPTFGQGTKVEIERTVAAPSVFIFPPSDEQLKSGTASVVCLLNNFYPREAKVQWKVDNALQSGNSQESVTEQDSKDSTYSLSSTLTLSKADYEKHKVYACEVTHQGLSSPVTKSFNRGEC
notes: He Ab; copies: 1 + 1 + 2

He/Con 3a: 93%
B6: GpH7-A5/GpH7-B3 variant S239_14T/GpL16-k0 (antibody, human IgG1, kappa)
heavy 1: not shown
heavy 2: not shown
light: B2 light
notes: He Ab; copies: 1 + 1 + 2

He/Con 3a: 77.6%
B7: GpH7-A5/GpH7-B3 variant S298_04F/GpL16-k0 (antibody, human IgG1, kappa)
heavy 1: not shown
heavy 2: not shown
light: B2 light
notes: He Ab; copies: 1 + 1 + 2

He/Con 3a: 64.3%
B8: GpH7-A5/GpH7-B3 variant S267_19Q/GpL16-k0 (antibody, human IgG1, kappa)
heavy 1: not shown
heavy 2: not shown
light: B2 light
notes: He Ab; copies: 1 + 1 + 2

He/Con 3a: 103%
B15: GpH7-A5/GpH7-B3 variant S298_03V/GpL16-k0 (antibody, human IgG1, kappa)
heavy 1: not shown
heavy 2: not shown
light: B2 light
notes: He Ab; copies: 1 + 1 + 2

He/Con 3a: 151%
B16: GpH7-A5/GpH7-B3 variant S298_02A/GpL16-k0 (antibody, human IgG1, kappa)
heavy 1: not shown
heavy 2: not shown
light: B2 light
notes: He Ab; copies: 1 + 1 + 2

He/Con 3a: 90.9%
B19: GpH7-A5/GpH7-B3 variant S267_10E/GpL16-k0 (antibody, human IgG1, kappa)
heavy 1: not shown
heavy 2: not shown
light: B2 light
notes: He Ab; copies: 1 + 1 + 2

He/Con 3a: 53.3%
B20: GpH7-A5/GpH7-B3 variant S267_01G/GpL16-k0 (antibody, human IgG1, kappa)
heavy 1: not shown
heavy 2: not shown
light: B2 light
notes: He Ab; copies: 1 + 1 + 2

He/Con 3a: 62.7%
B22: GpH7-A5/GpH7-B3 variant S298_09D/GpL16-k0 (antibody, human IgG1, kappa)
heavy 1: not shown
heavy 2: not shown
light: B2 light
notes: He Ab; copies: 1 + 1 + 2

He/Con 3a: 80.6%
B24: GpH7-A5/GpH7-B3 variant S298_15Y/GpL16-k0 (antibody, human IgG1, kappa)
heavy 1: not shown
heavy 2: not shown
light: B2 light
notes: He Ab; copies: 1 + 1 + 2

He/Con 3a: 69.2%
B25: GpH7-A5/GpH7-B3 variant S298_08L/GpL16-k0 (antibody, human IgG1, kappa)
heavy 1: not shown
heavy 2: not shown
light: B2 light
notes: He Ab; copies: 1 + 1 + 2

He/Con 3a: 90.7%
B30: GpH7-A5/GpH7-B3 variant S298_07I/GpL16-k0 (antibody, human IgG1, kappa)
heavy 1: not shown
heavy 2: not shown
light: B2 light
notes: He Ab; copies: 1 + 1 + 2

Further lines, the binder ahead of its results:

B1: GpH7-A5/GpH7-B3 variant P331_07I/GpL16-k0 (antibody, human IgG1, kappa)
heavy 1: not shown
heavy 2: not shown
light: B2 light
notes: He Ab; copies: 1 + 1 + 2
He/Con 3a: 60.4%

B3: GpH7-A5/GpH7-B3 variant Q295_16H/GpL16-k0 (antibody, human IgG1, kappa)
heavy 1: not shown
heavy 2: not shown
light: B2 light
notes: He Ab; copies: 1 + 1 + 2
He/Con 3a: 80.2%

B4: GpH7-A5/GpH7-B3 variant Q295_06M/GpL16-k0 (antibody, human IgG1, kappa)
heavy 1: not shown
heavy 2: not shown
light: B2 light
notes: He Ab; copies: 1 + 1 + 2
He/Con 3a: 100%

B5: GpH7-A5/GpH7-B3 variant S239_02A/GpL16-k0 (antibody, human IgG1, kappa)
heavy 1: not shown
heavy 2: not shown
light: B2 light
notes: He Ab; copies: 1 + 1 + 2
He/Con 3a: 70.9%

B9: GpH7-A5/GpH7-B3 variant Q295_12R/GpL16-k0 (antibody, human IgG1, kappa)
heavy 1: not shown
heavy 2: not shown
light: B2 light
notes: He Ab; copies: 1 + 1 + 2
He/Con 3a: 73.2%

B10: GpH7-A5/GpH7-B3 variant Q295_04F/GpL16-k0 (antibody, human IgG1, kappa)
heavy 1: not shown
heavy 2: not shown
light: B2 light
notes: He Ab; copies: 1 + 1 + 2
He/Con 3a: 75.1%

B11: GpH7-A5/GpH7-B3 variant Q295_14T/GpL16-k0 (antibody, human IgG1, kappa)
heavy 1: not shown
heavy 2: not shown
light: B2 light
notes: He Ab; copies: 1 + 1 + 2
He/Con 3a: 120%

B12: GpH7-A5/GpH7-B3 variant S239_03V/GpL16-k0 (antibody, human IgG1, kappa)
heavy 1: not shown
heavy 2: not shown
light: B2 light
notes: He Ab; copies: 1 + 1 + 2
He/Con 3a: 72.4%

B13: GpH7-A5/GpH7-B3 variant P331_19Q/GpL16-k0 (antibody, human IgG1, kappa)
heavy 1: not shown
heavy 2: not shown
light: B2 light
notes: He Ab; copies: 1 + 1 + 2
He/Con 3a: 73.9%

B14: GpH7-A5/GpH7-B3 variant Q295_13S/GpL16-k0 (antibody, human IgG1, kappa)
heavy 1: not shown
heavy 2: not shown
light: B2 light
notes: He Ab; copies: 1 + 1 + 2
He/Con 3a: 90.4%

B17: GpH7-A5/GpH7-B3 variant S239_07I/GpL16-k0 (antibody, human IgG1, kappa)
heavy 1: not shown
heavy 2: not shown
light: B2 light
notes: He Ab; copies: 1 + 1 + 2
He/Con 3a: 75%

B18: GpH7-A5/GpH7-B3 variant S239_08L/GpL16-k0 (antibody, human IgG1, kappa)
heavy 1: not shown
heavy 2: not shown
light: B2 light
notes: He Ab; copies: 1 + 1 + 2
He/Con 3a: 90%

B21: GpH7-A5/GpH7-B3 variant P331_08L/GpL16-k0 (antibody, human IgG1, kappa)
heavy 1: not shown
heavy 2: not shown
light: B2 light
notes: He Ab; copies: 1 + 1 + 2
He/Con 3a: 66%

B23: GpH7-A5/GpH7-B3 variant P331_18N/GpL16-k0 (antibody, human IgG1, kappa)
heavy 1: not shown
heavy 2: not shown
light: B2 light
notes: He Ab; copies: 1 + 1 + 2
He/Con 3a: 67.1%

B26: GpH7-A5/GpH7-B3 variant P331_15Y/GpL16-k0 (antibody, human IgG1, kappa)
heavy 1: not shown
heavy 2: not shown
light: B2 light
notes: He Ab; copies: 1 + 1 + 2
He/Con 3a: 74.9%

B27: GpH7-A5/GpH7-B3 variant S239_09D/GpL16-k0 (antibody, human IgG1, kappa)
heavy 1: not shown
heavy 2: not shown
light: B2 light
notes: He Ab; copies: 1 + 1 + 2
He/Con 3a: 156%

B28: GpH7-A5/GpH7-B3 variant Q295_09D/GpL16-k0 (antibody, human IgG1, kappa)
heavy 1: not shown
heavy 2: not shown
light: B2 light
notes: He Ab; copies: 1 + 1 + 2
He/Con 3a: 85.6%

B29: GpH7-A5/GpH7-B3 variant P331_11K/GpL16-k0 (antibody, human IgG1, kappa)
heavy 1: not shown
heavy 2: not shown
light: B2 light
notes: He Ab; copies: 1 + 1 + 2
He/Con 3a: 61.8%
